Earlier results, collected in patent US12453725B2, “Treatment of inflammatory disease” (Celleron Therapeutics Limited, priority 2019, dated 2025).

How the values were obtained:
[1] = human, in vivo, cited from earlier work
[2] = human, in vivo; cited from earlier work
[3] = in vivo; cited from earlier work

Substance: ipilimumab: approved checkpoint inhibitor monoclonal antibody targeting CTLA-4
- incidence of grade 3/4 colitis ([1]; 5 mg/kg): 13%
- enterocolitis (grade 3 or 4 symptoms and/or biopsy proven) [1]: 21%
- grade 3/4 diarrhoea, patients [1]: 10%

Substance: nivolumab: human monoclonal antibody that blocks the interaction between PD-1 and its ligands, PD-L1 and PD-L2; IgG4 kappa immunoglobulin
- grade 3/4 diarrhoea, patients [1]: 1%-2%
- abnormal liver tests [2]: clinical trials, between 7 patients in 100 had abnormal liver
- diarrhoea or colitis [2]: nivolumab clinical trials, 13 patients in 100 developed
- disorders of hormone-producing glands [2]: trials, 10 patients in 100 developed disorders of hormone-
- immune-related colitis, patients [2]: 13%
- kidney inflammation [2]: nivolumab clinical trials, 3 patients in 100 developed kidney
- lung inflammation [2]: clinical trials, 3 patients in 100 developed lung
- rash [2]: between 26 patients in 100 developed rash. Signs or

Substance: pembrolizumab: humanized IgG4 monoclonal antibody that binds the programmed cell death-1 receptor
- colitis, listed frequency of GI side effect [3]: common
- grade 3/4 diarrhoea, patients [1]: 1%-2%
